# In US20150246945A1 (JAPANESE FOUNDATION FOR CANCER RESEARCH, published 2015):
# Bridge positions count the residues as written; N and C are the ends. Ends that are not written are not given here. * marks the point of attachment. Biotin = O=C1N[C@H]2[C@H](CS[C@H]2CCCCC(=O)*)N1
# T1: purified EpCAM (extracellular domain with myc and His tags at the C terminus, expressed in HEK-293T cells) (UniProt P16422 24-265, limits assumed)
# T1 construct: extracellular domain; also called epithelial cell adhesion molecule; CD326
# T1 sequence (looked up): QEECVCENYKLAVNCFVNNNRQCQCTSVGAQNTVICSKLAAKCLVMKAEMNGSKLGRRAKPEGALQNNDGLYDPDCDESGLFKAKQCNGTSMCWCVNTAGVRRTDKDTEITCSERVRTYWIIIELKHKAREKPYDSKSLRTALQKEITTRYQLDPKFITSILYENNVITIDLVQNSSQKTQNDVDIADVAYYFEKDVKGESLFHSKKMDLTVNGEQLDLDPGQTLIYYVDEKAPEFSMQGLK
# T2: EpCAM, whole protein on cells (HT-29, MCF-7, 293T transfected with full-length EpCAM plasmid pkk196) or on … (UniProt P16422 24-314, limits assumed)
# T2 construct: whole, on cells; Used for both cell-surface EpCAM and EpCAM carried on HT-29 exosomes; the assay field says which; also called EpCAM on HT-29; EpCAM-expressing cells
# T2 sequence (looked up): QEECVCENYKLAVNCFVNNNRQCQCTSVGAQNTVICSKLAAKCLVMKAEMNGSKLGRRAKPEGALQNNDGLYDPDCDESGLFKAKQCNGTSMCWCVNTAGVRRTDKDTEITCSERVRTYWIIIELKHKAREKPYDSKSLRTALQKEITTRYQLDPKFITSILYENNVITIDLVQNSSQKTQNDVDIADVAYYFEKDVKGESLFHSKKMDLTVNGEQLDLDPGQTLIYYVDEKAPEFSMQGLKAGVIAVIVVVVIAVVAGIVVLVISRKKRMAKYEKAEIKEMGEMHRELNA
# B1: Ep133 peptide (peptide)
# peptide: EHLHCLGSLCWP
# modifications: disulfide 5-10; also: FITC-modified, position not given here
# notes: Synthetic peptide, FITC-modified in fluorescence depolarization and cell staining
# B2: Ep114 peptide (peptide)
# peptide: KHLQCVRNICWS
# modifications: disulfide 5-10; also: FITC-modified, position not given here
# notes: as for B1
# B3: PE184 peptide (peptide)
# peptide: Ac-KHLQCVRNICWSGGSGGSK(Biotin)-NH2
# modifications: not fully specified (bridges); printed as Ac-KHLQCVRNICWSGGSGGSK(biotin)-NH2; cysteine pairing not given here
# notes: Ep114 with the linker GGSGGSK, biotin-modified
# B4: PE185 peptide (peptide)
# peptide: Ac-KHLQCVRNICWSNNNNSNNNNK(Biotin)-NH2
# modifications: not fully specified (bridges); printed as Ac-KHLQCVRNICWSNNNNSNNNNK(biotin)-NH2; cysteine pairing not given here
# B5: Ep114(K1A) variant phage (peptide)
# chain: AHLQCVRNICWS
# modifications: not fully specified (bridges); cysteine pairing not given here; also: displayed on phage
# notes: also called variant in which lysine at the 1st residue was substituted by alanine (A); not shown: not described
# B6: Ep114(K1S) variant phage (peptide)
# chain: SHLQCVRNICWS
# modifications: not fully specified (bridges); cysteine pairing not given here; also: displayed on phage
# notes: also called variant in which lysine at the 1st residue was substituted by serine (S); not shown: not described
# B7: Ep114(K1I) variant phage (peptide)
# chain: IHLQCVRNICWS
# modifications: not fully specified (bridges); cysteine pairing not given here; also: displayed on phage
# notes: also called variant in which lysine at the 1st residue was substituted by isoleucine (I); not shown: not described
# B8: Ep114(L3A) variant phage (peptide)
# chain: KHAQCVRNICWS
# modifications: not fully specified (bridges); cysteine pairing not given here; also: displayed on phage
# notes: not shown: not described
# B9: Ep114(K1N) variant phage (peptide)
# chain: NHLQCVRNICWS
# modifications: not fully specified (bridges); cysteine pairing not given here; also: displayed on phage
# notes: also called variant in which lysine at the 1st residue was substituted by asparagine (N); not shown: not described
# B10: Ep114-displaying phage (peptide)
# chain: KHLQCVRNICWS
# modifications: cysteine pairing not given here; also: displayed on phage
# notes: not shown: fusion and linker not described
# B11: Ep301 control (peptide)
# peptide: KSLQSINNLSWP
# modifications: also: FITC-modified, position not given here
# notes: Ep301 with cysteine at positions 5 and 10 substituted by serine
# B12: Ep114(K1M) variant phage (peptide)
# chain: MHLQCVRNICWS
# modifications: not fully specified (bridges); cysteine pairing not given here; also: displayed on phage
# notes: also called variant in which lysine was substituted by methionine (M); not shown: not described
# B13: Ep114(K1Y) variant phage (peptide)
# chain: YHLQCVRNICWS
# modifications: not fully specified (bridges); cysteine pairing not given here; also: displayed on phage
# notes: also called variant in which lysine was substituted by tyrosine (Y); not shown: not described
# B14: Ep114(K1W) variant phage (peptide)
# chain: WHLQCVRNICWS
# modifications: not fully specified (bridges); cysteine pairing not given here; also: displayed on phage
# notes: also called variant in which lysine was substituted by tryptophan (W); not shown: not described
# B15: Ep114(K1F) variant phage (peptide)
# chain: FHLQCVRNICWS
# modifications: not fully specified (bridges); cysteine pairing not given here; also: displayed on phage
# notes: also called variant in which lysine was substituted by phenylalanine (F); not shown: not described
# Biological target: T1, purified EpCAM (extracellular domain …)
# Assay: fluorescence depolarization
# Procedure: (§1) Each FITC-modified EpCAM peptide or control peptide was suspended at a concentration of approximately 100 μM in PBS. After centrifugation, the supernatant was collected and diluted 10-fold, and the absorbance was measured at 495 nm From the measurement value, the molar concentration of the peptide was determined using the formula of Beer-Lambert of the following expression 1: […]
# (§2) EpCAM is diluted with PBS into several concentrations from 0 until reaching equilibrium (40 nM for the Ep133 peptide), and the FITC-modified peptide whose precise concentration has been measured by the aforementioned method is added to the dilutions thus prepared. The sample was left at a temperature for measurement for 30 minutes or longer and subjected to polarization measurement using a spectrofluorometer FP-6500 (JASCO Corp.) equipped with an automatic polarization measurement unit (JASCO Corp., APH-103). Kd was estimated by curve fitting according to the Hill equation.
row,Binder,fold strength of binding compared with Ep301 [times]
1,B1,≥ 10
2,B2,≥ 10

# Biological target: T2, EpCAM, whole protein on cells (HT-29, …)
# Assay: pull-down of HT-29 exosomes on peptide-loaded streptavidin beads, Western blot with anti-EpCAM
# Procedure: 250 μg of streptavidin-magnetic beads (Dynabeads® M-280 streptavidin, VERITAS Corp.) in TBS containing 2% BSA was added to 20 μg of the biotinylated Ep114 peptide and shaken at room temperature for 30 minutes, followed by washing with TBS. Beads reacted without the peptide were used as a control. The anti-Ep114 antibody was added to the beads in TBST and reacted at room temperature for 1 hour. After washing with TBS, the beads were collected. The collected beads were heated at 95° C. for 5 minutes in a SDS sample buffer. After Western-blotting, the anti-Ep114 antibody was detected using HRP-labeled anti-rabbit antibodies.
# The binding to exosomes was confirmed using the Western blot system in the similar method as in the preceding paragraph 1. Specifically, 20 μg of the biotinylated Ep114 peptide, the PE183 peptide, the PE184 peptide, or the PE185 peptide was bound to 250 μg of streptavidin-magnetic beads and then reacted with exosomes isolated from HT-29 cells as EpCAM-positive cells, followed by Western blot to detect the exosomes using anti-EpCAM polyclonal antibodies (see the left panel of FIG. 5C).
row,Binder,binding result
1,B3,binds
2,B4,binds

# Biological target: T1, purified EpCAM (extracellular domain …)
# Assay: phage bound to EpCAM, captured on beads, phages counted
# Procedure: The analysis was conducted using the variants in which lysine at the 1st residue was substituted by alanine (A), asparagine (N), serine (S), or isoleucine (I), and M13KE, Ep114, and the variant in which leucine at the 3rd residue was substituted by alanine as controls. Each phage of 1×10¹⁰ PFU was bound to 1 μg of EpCAM, and then mixed with 0.4 mg of beads pretreated overnight with 0.5% BSA and B&W buffer (5 mM Tris-HCl (pH 7.5), 0.5 mM EDTA, and 1 M NaCl). The number of phages bound to the beads was counted.
row,Binder,binding result
1,B5,binds
2,B6,binds
3,B7,binds
4,B8,binds
5,B9,binds
6,B10,binds

# Biological target: T1, purified EpCAM (extracellular domain …)
# Assay: fluorescence depolarization, FITC-modified peptide
# Procedure: as §1, §2
# The dissociation constants of the EpCAM-binding peptide Ep301 (FIG. 2(D)) disclosed in Patent Literature 2 and Ep301 control (FIG. 2(E)), which was a control peptide derived from Ep301 by the substitution of cysteine at positions 5 and 10 by serine, and a sequence of EpCAM from residue 106 to 119 (FIG. 2(F)) having partial homology to EpCAM-binding peptides were measured similarly.
row,Binder,binding result
1,"KAKQCNGTSMCWPK (cysteine pairing not given here; also: FITC-modified, position not given here) [EpCAM partial sequence (sequence of EpCAM from residue 106 to 119)]",no binding
2,B11,no binding

# Biological target: T1, purified EpCAM (extracellular domain …)
# Assay: fluorescence depolarization, FITC-modified peptide, Hill fit
# Procedure: as §1, §2
row,Binder,Kd [nM]
1,B1,1.5
2,B2,1.6
3,"KSLQCINNLCWP (disulfide 5-10; also: FITC-modified, position not given here) [Ep301 peptide]",20

# Biological target: T1, purified EpCAM (extracellular domain …)
# Assay: phage ELISA on immobilized EpCAM
# Procedure: The phages displaying the peptides in which each amino acid of Ep114 was substituted by alanine are added to the EpCAM- or anti-Ep114 antibody-immobilized plate, and the plate is left still at room temperature for 1 hour. After washing with TBST, HRP-labeled anti-M13 antibodies were reacted therewith, followed by detection using ABTS (2,2′-azinobis(3-ethylbenzothiazoline-6-sulfonic acid). The binding activity against EpCAM is shown in FIG. 3A, and the binding activity against the anti-Ep114 antibody is shown in FIG. 3B. M13KE is a phage displaying no peptide and is a negative control.
# As with the alanine substitution variants, variant phages were prepared by the introducing specific mutations to lysine at the 1st residue based on inverse PCR method and analyzed for binding activity against EpCAM. The analysis method involved evaluation by ELISA in the same way as in the functional analysis of the Ep114 peptide by the alanine scanning. In the figure, EpCAM+ and EpCAM− represent the presence and absence of EpCAM immobilization onto a plate, respectively. Corrected value represents a value subtracting the measurement of EpCAM− from the measurement of EpCAM+.
row,Binder,binding result
1,B12,binds
2,B13,binds
3,B14,binds
4,B15,binds
